Laboratory results reported in PMC5854672, “Solution structure of extracellular loop of human β4 subunit of BK channel and its biological implication on ChTX sensitivity” (Scientific Reports, 2018).

What was measured:
[1] = biological target: mSlo1 channel (BKα subunit of mouse, alone) (mouse) (UniProt Q08460)
mSlo1/β4(N123A) channel [2] = biological target: T1, mSlo1/β4(N123A) channel (mouse | human, UniProt Q08460 1-1209; Q86W47 1-210, N123A); assay: cell-based or functional assay
mSlo1/β4(N123K) channel [3] = biological target: T2, mSlo1/β4(N123K) channel (mouse | human, UniProt Q08460 1-1209; Q86W47 1-210, N123K); assay: cell-based or functional assay
mSlo1/β4(N123R) channel [4] = biological target: T3, mSlo1/β4(N123R) channel (mouse | human, UniProt Q08460 1-1209; Q86W47 1-210, N123R); assay: cell-based or functional assay
mSlo1/β4(N123E) channel [5] = biological target: T4, mSlo1/β4(N123E) channel (mouse | human, UniProt Q08460 1-1209; Q86W47 1-210, N123E); assay: cell-based or functional assay
mSlo1/β4(N123D) channel [6] = biological target: T5, mSlo1/β4(N123D) channel (mouse | human, UniProt Q08460 1-1209; Q86W47 1-210, N123D); assay: cell-based or functional assay
mSlo1/β4 channel [7] = biological target: T6, mSlo1/β4 channel (mouse | human, UniProt Q08460 1-1209; Q86W47 1-210); assay: cell-based or functional assay
mSlo1/β4(H101Y) channel = biological target: T7, mSlo1/β4(H101Y) channel (mouse | human, UniProt Q08460 1-1209; Q86W47 1-210, H101Y); assay: patch-clamp electrophysiology (time course of current block); outside-out patches of transfected HEK293 cells perfused with 1 μM ChTX; steps to +100 mV, intracellular 10 μM Ca2+; τon and τoff fitted to a first order bimolecular reaction scheme; KD = [ChTX]/((τoff/τon) − 1); conditions: one partner purified
T7 construct: mSlo1, BK channel α subunit (KCNMA1) of mouse, full-length cDNA, GenBank HQ221747.1; human BK channel β4 subunit (KCNMB4), full-length cDNA, GenBank AF207992.1; source: HEK293, transiently co-transfected (pcDNA3.1(+)), in excised membrane patches; copies: 4 + 4

mSlo1/β4(N123A) channel [8] = biological target: T1, mSlo1/β4(N123A) channel; assay: as above; conditions: one partner purified
mSlo1/β4(N123K) channel [9] = biological target: T2, mSlo1/β4(N123K) channel; assay: as above; conditions: one partner purified
mSlo1/β4(N123R) channel [10] = biological target: T3, mSlo1/β4(N123R) channel; assay: as above; conditions: one partner purified
mSlo1/β4(N123E) channel [11] = biological target: T4, mSlo1/β4(N123E) channel; assay: as above; conditions: one partner purified
mSlo1/β4(N123D) channel [12] = biological target: T5, mSlo1/β4(N123D) channel; assay: as above; conditions: one partner purified
mSlo1/β4(N123F) channel = biological target: T8, mSlo1/β4(N123F) channel (mouse | human, UniProt Q08460 1-1209; Q86W47 1-210, N123F); assay: as above; conditions: one partner purified
T8 construct: mSlo1, BK channel α subunit (KCNMA1) of mouse, full-length cDNA, GenBank HQ221747.1; human BK channel β4 subunit (KCNMB4), full-length cDNA, GenBank AF207992.1; source: HEK293, transiently co-transfected (pcDNA3.1(+)), in excised membrane patches; copies: 4 + 4

mSlo1/β4(N123V) channel = biological target: T9, mSlo1/β4(N123V) channel (mouse | human, UniProt Q08460 1-1209; Q86W47 1-210, N123V); assay: as above; conditions: one partner purified
T9 construct: mSlo1, BK channel α subunit (KCNMA1) of mouse, full-length cDNA, GenBank HQ221747.1; human BK channel β4 subunit (KCNMB4), full-length cDNA, GenBank AF207992.1; source: HEK293, transiently co-transfected (pcDNA3.1(+)), in excised membrane patches; copies: 4 + 4

mSlo1/β4(N123Y) channel = biological target: T10, mSlo1/β4(N123Y) channel (mouse | human, UniProt Q08460 1-1209; Q86W47 1-210, N123Y); assay: as above; conditions: one partner purified
T10 construct: mSlo1, BK channel α subunit (KCNMA1) of mouse, full-length cDNA, GenBank HQ221747.1; human BK channel β4 subunit (KCNMB4), full-length cDNA, GenBank AF207992.1; source: HEK293, transiently co-transfected (pcDNA3.1(+)), in excised membrane patches; copies: 4 + 4

mSlo1/β4(N123I) channel = biological target: T11, mSlo1/β4(N123I) channel (mouse | human, UniProt Q08460 1-1209; Q86W47 1-210, N123I); assay: as above; conditions: one partner purified
T11 construct: mSlo1, BK channel α subunit (KCNMA1) of mouse, full-length cDNA, GenBank HQ221747.1; human BK channel β4 subunit (KCNMB4), full-length cDNA, GenBank AF207992.1; source: HEK293, transiently co-transfected (pcDNA3.1(+)), in excised membrane patches; copies: 4 + 4

mSlo1/β4(N123L) channel = biological target: T12, mSlo1/β4(N123L) channel (mouse | human, UniProt Q08460 1-1209; Q86W47 1-210, N123L); assay: as above; conditions: one partner purified
T12 construct: mSlo1, BK channel α subunit (KCNMA1) of mouse, full-length cDNA, GenBank HQ221747.1; human BK channel β4 subunit (KCNMB4), full-length cDNA, GenBank AF207992.1; source: HEK293, transiently co-transfected (pcDNA3.1(+)), in excised membrane patches; copies: 4 + 4

[13] = biological target: T13, mSlo1 channel (BKα subunit of mouse, alone) (mouse, UniProt Q08460 1-1209); assay: as above; conditions: one partner purified
T13 construct: mSlo1, BK channel α subunit (KCNMA1) of mouse, full-length cDNA, GenBank HQ221747.1; tetrameric Slo1; also called mSlo1 alone channel; source: HEK293, transiently transfected (pcDNA3.1(+)), in excised membrane patches

mSlo1/β4 channel [14] = biological target: T6, mSlo1/β4 channel; assay: as above; conditions: one partner purified

T5 sequence (Q08460 whole entry, stated change not applied, one chain of several): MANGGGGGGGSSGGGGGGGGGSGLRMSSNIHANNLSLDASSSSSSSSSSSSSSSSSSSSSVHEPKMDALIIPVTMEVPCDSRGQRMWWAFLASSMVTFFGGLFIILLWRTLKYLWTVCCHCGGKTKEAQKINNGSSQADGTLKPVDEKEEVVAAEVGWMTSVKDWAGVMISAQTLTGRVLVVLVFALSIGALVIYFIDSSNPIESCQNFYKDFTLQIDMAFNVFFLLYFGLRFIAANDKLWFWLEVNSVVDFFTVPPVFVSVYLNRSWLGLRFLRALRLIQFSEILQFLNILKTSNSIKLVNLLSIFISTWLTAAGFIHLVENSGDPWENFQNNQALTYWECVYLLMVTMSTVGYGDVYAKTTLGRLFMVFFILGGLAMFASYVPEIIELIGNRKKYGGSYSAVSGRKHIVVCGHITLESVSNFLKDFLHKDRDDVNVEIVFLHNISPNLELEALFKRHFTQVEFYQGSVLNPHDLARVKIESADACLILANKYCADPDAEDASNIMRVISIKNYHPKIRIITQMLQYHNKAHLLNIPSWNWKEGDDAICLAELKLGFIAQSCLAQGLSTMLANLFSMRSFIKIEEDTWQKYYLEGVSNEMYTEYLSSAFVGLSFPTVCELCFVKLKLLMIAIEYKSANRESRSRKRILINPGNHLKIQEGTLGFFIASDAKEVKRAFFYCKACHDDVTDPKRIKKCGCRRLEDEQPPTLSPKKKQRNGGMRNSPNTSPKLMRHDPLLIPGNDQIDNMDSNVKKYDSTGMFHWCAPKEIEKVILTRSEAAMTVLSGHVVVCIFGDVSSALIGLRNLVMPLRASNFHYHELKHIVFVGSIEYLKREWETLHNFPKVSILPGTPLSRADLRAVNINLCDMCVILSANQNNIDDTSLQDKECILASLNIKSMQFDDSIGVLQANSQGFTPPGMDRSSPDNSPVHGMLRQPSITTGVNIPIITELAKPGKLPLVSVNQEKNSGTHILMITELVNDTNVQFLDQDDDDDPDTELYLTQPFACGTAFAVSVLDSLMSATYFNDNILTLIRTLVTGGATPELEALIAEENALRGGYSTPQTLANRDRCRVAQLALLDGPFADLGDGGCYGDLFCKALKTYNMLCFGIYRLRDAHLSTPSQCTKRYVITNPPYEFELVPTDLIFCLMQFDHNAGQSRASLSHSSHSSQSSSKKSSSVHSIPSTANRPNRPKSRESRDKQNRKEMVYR
T13 sequence (Q08460 whole entry): as the sequence (Q08460 whole entry, stated change not applied, one chain of several) above
T4 sequence (Q08460 whole entry, stated change not applied, one chain of several): as above
T6 sequence (Q08460 whole entry, the tested form may be a part, one chain of several): as the sequence (Q08460 whole entry, stated change not applied, one chain of several) above
Sequence of mSlo1 channel (BKα subunit of mouse, alone) (mouse) (Q08460 whole entry): as the sequence (Q08460 whole entry, stated change not applied, one chain of several) above

B1: human β4 subunit of BK channel, full length (natural protein)
chain: MAKLRVAYEYTEAEDKSIRLGLFLIISGVVSLFIFGFCWLSPALQDLQATEANCTVLSVQQIGEVFECTFTCGADCRGTSQYPCVQVYVNNSESNSRALLHSDEHQLLTNPKCSYIPPCKRENQKNLESVMNWQQYWKDEIGSQPFTCYFNQHQRPDDVLLHRTHDEIVLLHCFLWPLVTFVVGVLIVVLTICAKSLAVKAEAMKKRKFS
- thermodynamic double-mutant cycle on V1/2 of G-V curves (inside-out patches, 10 μM Ca2+): mSlo1(E264A) against β4(N123A), ΔΔV [1]: -42.4 mV

B2: Charybdotoxin (peptide)
chain: QFTNVSCTTSKECWSVCQRLHNTSRGKCMNKKCRCYS
notes: charybdotoxin (ChTX), scorpion toxin; also called ChTX; source: bought: Sigma-Aldrich (Art. No. C7802)
- inhibition of channel currents by 1 μM ChTX (outside-out patches, HEK293) (mSlo1/β4(N123A) channel [2]): ~90%
- inhibition of channel currents by 1 μM ChTX (outside-out patches, HEK293) (mSlo1/β4(N123K) channel [3]): 89.1%
- inhibition of channel currents by 1 μM ChTX (outside-out patches, HEK293) (mSlo1/β4(N123R) channel [4]): 36.4%
- inhibition of channel currents by 1 μM ChTX (outside-out patches, HEK293) (mSlo1/β4(N123E) channel [5]): 96%
- inhibition of channel currents by 1 μM ChTX (outside-out patches, HEK293) (mSlo1/β4(N123D) channel [6]): 46.9%
- inhibition of channel currents by 1 μM ChTX (outside-out patches, HEK293) (mSlo1/β4 channel [7]): 22.2%
- Kd (mSlo1/β4(H101Y) channel): 325 nM
- τoff (mSlo1/β4(H101Y) channel): 32.6 s
- τon (block at 1 μM ChTX) (mSlo1/β4(H101Y) channel): 8 s
- Kd (mSlo1/β4(N123A) channel [8]): 96.8 nM
- τoff (mSlo1/β4(N123A) channel [8]): 816 s
- τon (block at 1 μM ChTX) (mSlo1/β4(N123A) channel [8]): 72 s
- Kd (mSlo1/β4(N123K) channel [9]): 44.3 nM
- τoff (mSlo1/β4(N123K) channel [9]): 314 s
- τon (block at 1 μM ChTX) (mSlo1/β4(N123K) channel [9]): 13.3 s
- Kd (mSlo1/β4(N123R) channel [10]): 329 nM
- τoff (mSlo1/β4(N123R) channel [10]): 85.3 s
- τon (block at 1 μM ChTX) (mSlo1/β4(N123R) channel [10]): 21.1 s
- Kd (mSlo1/β4(N123E) channel [11]): 80.8 nM
- τoff (mSlo1/β4(N123E) channel [11]): 138 s
- τon (block at 1 μM ChTX) (mSlo1/β4(N123E) channel [11]): 10.3 s
- Kd (mSlo1/β4(N123D) channel [12]): 72.6 nM
- τoff (mSlo1/β4(N123D) channel [12]): 624 s
- τon (block at 1 μM ChTX) (mSlo1/β4(N123D) channel [12]): 42.2 s
- Kd (mSlo1/β4(N123F) channel): 47.1 nM
- τoff (mSlo1/β4(N123F) channel): 670 s
- τon (block at 1 μM ChTX) (mSlo1/β4(N123F) channel): 30.1 s
- Kd (mSlo1/β4(N123V) channel): 61.8 nM
- τoff (mSlo1/β4(N123V) channel): 53.3 s
- τon (block at 1 μM ChTX) (mSlo1/β4(N123V) channel): 3.1 s
- Kd (mSlo1/β4(N123Y) channel): 291 nM
- τoff (mSlo1/β4(N123Y) channel): 26.2 s
- τon (block at 1 μM ChTX) (mSlo1/β4(N123Y) channel): 5.9 s
- Kd (mSlo1/β4(N123I) channel): 119 nM
- τoff (mSlo1/β4(N123I) channel): 38.5 s
- τon (block at 1 μM ChTX) (mSlo1/β4(N123I) channel): 4.1 s
- Kd (mSlo1/β4(N123L) channel): 41.9 nM
- τoff (mSlo1/β4(N123L) channel): 171 s
- τon (block at 1 μM ChTX) (mSlo1/β4(N123L) channel): 6.9 s
- Kd [13]: 193 nM
- τoff [13]: 21.6 s
- τon (block at 1 μM ChTX) [13]: 3.5 s
- τon (block at 1 μM ChTX) (mSlo1/β4 channel [14]): 60.9 s
